Paper PMC6345366 (Chemical communications (Cambridge, England), 2017)
Square brackets hold non-standard residues; d marks the D form. Ends that are not written are not given here.

T1: KDM5A PHD3 (third PHD zinc finger of KDM5A) (UniProt P29375 1609-1659)
T1 sequence: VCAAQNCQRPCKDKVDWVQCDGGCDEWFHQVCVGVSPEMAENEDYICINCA

T2: TAF3 PHD zinc finger
T2 sequence (Q5VWG9 whole entry, species assumed, looked up): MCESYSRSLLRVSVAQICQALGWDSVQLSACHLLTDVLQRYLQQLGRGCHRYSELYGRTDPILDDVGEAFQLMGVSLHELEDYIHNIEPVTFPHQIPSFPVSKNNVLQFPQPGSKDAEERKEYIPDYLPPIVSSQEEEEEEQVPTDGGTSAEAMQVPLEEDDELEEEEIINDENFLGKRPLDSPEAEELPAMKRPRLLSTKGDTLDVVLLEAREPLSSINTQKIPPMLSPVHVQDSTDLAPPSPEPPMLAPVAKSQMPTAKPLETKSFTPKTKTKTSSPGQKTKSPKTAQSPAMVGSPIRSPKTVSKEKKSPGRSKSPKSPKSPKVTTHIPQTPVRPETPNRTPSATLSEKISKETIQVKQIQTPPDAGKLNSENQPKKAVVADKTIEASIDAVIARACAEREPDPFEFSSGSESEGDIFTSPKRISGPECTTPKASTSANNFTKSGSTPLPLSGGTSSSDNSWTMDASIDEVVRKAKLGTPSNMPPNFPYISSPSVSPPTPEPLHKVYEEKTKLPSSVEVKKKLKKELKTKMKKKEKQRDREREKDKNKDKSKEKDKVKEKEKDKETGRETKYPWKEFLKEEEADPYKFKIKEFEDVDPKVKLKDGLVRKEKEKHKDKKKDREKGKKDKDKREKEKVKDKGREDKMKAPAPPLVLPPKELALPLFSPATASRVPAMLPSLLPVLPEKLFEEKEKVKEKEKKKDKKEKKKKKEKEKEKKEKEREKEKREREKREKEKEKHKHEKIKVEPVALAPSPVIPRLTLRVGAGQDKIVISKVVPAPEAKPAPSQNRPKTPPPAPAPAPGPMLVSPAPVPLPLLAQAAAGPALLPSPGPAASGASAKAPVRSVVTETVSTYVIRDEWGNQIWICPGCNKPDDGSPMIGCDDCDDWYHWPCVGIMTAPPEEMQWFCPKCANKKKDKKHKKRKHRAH

T3: KDM4A tandem tudor domain (human)
T3 sequence (O75164 whole entry, looked up): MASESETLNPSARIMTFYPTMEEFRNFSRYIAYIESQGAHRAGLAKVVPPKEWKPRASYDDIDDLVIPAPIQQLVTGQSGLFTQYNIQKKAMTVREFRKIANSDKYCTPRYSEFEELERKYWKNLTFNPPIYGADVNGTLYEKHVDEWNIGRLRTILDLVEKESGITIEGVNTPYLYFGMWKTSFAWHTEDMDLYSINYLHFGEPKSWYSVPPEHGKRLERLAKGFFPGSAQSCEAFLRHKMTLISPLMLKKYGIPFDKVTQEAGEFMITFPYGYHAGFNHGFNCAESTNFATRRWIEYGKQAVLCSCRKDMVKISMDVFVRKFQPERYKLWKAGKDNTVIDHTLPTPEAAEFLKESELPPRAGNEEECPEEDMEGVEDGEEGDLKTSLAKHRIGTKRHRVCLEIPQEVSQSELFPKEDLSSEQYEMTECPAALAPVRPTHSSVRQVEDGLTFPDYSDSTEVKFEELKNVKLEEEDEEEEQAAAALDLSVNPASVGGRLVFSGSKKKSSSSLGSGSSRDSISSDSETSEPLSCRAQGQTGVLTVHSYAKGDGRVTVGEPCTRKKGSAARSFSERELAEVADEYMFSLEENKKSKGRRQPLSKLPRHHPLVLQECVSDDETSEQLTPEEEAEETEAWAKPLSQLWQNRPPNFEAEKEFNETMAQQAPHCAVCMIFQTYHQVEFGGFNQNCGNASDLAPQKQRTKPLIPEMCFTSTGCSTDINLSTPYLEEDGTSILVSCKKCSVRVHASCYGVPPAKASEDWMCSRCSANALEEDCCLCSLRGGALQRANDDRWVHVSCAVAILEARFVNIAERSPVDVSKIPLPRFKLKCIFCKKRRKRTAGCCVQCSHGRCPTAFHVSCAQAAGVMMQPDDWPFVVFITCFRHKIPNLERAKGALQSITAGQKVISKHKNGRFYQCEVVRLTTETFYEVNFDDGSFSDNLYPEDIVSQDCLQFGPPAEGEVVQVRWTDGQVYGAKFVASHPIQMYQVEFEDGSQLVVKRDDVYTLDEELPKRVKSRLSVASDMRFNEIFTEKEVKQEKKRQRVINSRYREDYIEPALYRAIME


Assays:
Assay in all cases: ITC
[1] = molecular target: T1, KDM5A PHD3 (third PHD zinc finger of …)
[2] = molecular target: SGF29 tandem tudor domain
Chain of SGF29 tandem tudor domain (Q96ES7 whole entry, the tested form may be a part): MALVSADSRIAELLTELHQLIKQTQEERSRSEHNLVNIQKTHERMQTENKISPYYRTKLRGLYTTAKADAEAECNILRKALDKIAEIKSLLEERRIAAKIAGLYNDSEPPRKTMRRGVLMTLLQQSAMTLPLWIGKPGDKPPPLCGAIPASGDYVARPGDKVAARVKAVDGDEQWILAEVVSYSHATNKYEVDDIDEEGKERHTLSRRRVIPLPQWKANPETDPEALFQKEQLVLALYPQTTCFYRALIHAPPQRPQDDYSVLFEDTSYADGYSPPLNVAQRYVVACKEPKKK

[3] = molecular target: T2, TAF3 PHD zinc finger
[4] = molecular target: T3, KDM4A tandem tudor domain (human)

Row | Binder | Kd [1] [nM] | dH [1] [kcal/mol] | dH [2] [kcal/mol] | dH [3] [kcal/mol] | dH [4] [kcal/mol]
1 | ART[dK](Me3)QTARKS [10-mer histone peptide D-H3K4me3] | 1200 | -7.8 | – | – | –
2 | ARTK(Me3)QTARKS [10-mer histone peptide L-H3K4me3] | 110 | -11.1 | -7.7 | -10.1 | -13.1
